Data: article PMC4604765, “Eye drop delivery of pigment epithelium-derived factor-34 promotes retinal ganglion cell neuroprotection and axon regeneration” (Molecular and Cellular Neurosciences, 2015)
Read-outs that look alike come from different tables or passages of the source.

Experiments:
[1] = rat, in vivo; cited from earlier work
From the text: Drug administration to the retina and vitreous body is challenging. Drugs applied to the surface of the eye rarely penetrate the ocular surface or enter into the vitreous body and the retina ([Gaudana et al., 2010]). Biological barriers such as the cornea, conjunctiva and the tear film limit penetration and bioavailability of topical drug preparations to the posterior segment of the eye and therefore direct injection of drugs to the vitreous is commonly used to target drugs to the retina ([Ayalasomayajula and Kompella, 2005; Carneiro et al., 2009; Eldaly and Styles, 2009; Yasukawa et al., 2001 ...

RGC = conditions: intravitreal injections, ref Cheng et al., 2002, Kermer et al., 1998, Kurokawa et al., 1999, Monnier et al., 2011, Parrilla-Reverter et al., 2009, cited from earlier work
From the text: Other commonly used retinal neuron/RGC neuroprotective factors include BDNF, glial-derived neurotrophic factor (GDNF), neurotrophin (NT)-3, NT-4/5, as well as caspase inhibitors ([Cheng et al., 2002; Kermer et al., 1998; Kurokawa et al., 1999; Monnier et al., 2011; Parrilla-Reverter et al., 2009]). Although intravitreal injections of BDNF protect 100% of RGC for 7 days, efficiency declines to 60% by 21 days. Most neuroprotective strategies tested support the survival of a maximum of 60% of RGC at 2 weeks after injury ([Cheng et al., 2002; Kermer et al., 1998; Kurokawa et al., 1999; Monnier et ...

[2] = system: βIII-tubulin+ retinal neurons; conditions: CNTF 440.5 pM, 4 days in culture
From the text: For all in vitro experiments, adult 6–8-week-old female Sprague–Dawley rats weighing 170–220 g were used. Culture experiments included retinal cells treated with: (1), Neurobasal-A (NBA) alone (Control); and equimolar concentrations of (2), 2.16; (3) 5.4; (4), 10.8 and (5), 21.6 pM PEDF-34/-44; and (6), ciliary neurotrophic factor (CNTF: Peprotech, London, UK), as a positive control at an optimal neuroprotective/axogenic concentration of 440.5 pM, established by us previously ([Ahmed et al., 2009; Douglas et al., 2009]). […] All experiments were performed in triplicate and repeated on three independent occasions.
Mixed adult rat retinal cultures containing enriched populations of retinal neurons, including RGCs, were prepared from 6–8-week-old adult female Sprague–Dawley rats, as described previously ([Ahmed et al., 2006b, 2009, 2010; Douglas et al., 2009; Vigneswara et al., 2013]). Briefly, retinal cells were dissociated using a Papain dissociation kit according to the manufacturer's instructions (Worthington Biochemicals, Lakewood, NJ, USA). […]
The mean number of βIII-tubulin^+ neurons surviving, with neurites and the mean neurite length were quantified as described by us previously ([Vigneswara et al., 2013, 2014]). Briefly, chamber slides were anonymised by a second investigator and βIII-tubulin^+ neuronal soma and neurites quantified in 9 quadrants/well using Axiovision software (Version 4.8; Zeiss) and ImagePro (Version 6.3; Media Cybernetics, Bethesda, MD, USA). Of the 125,000 cells/well plated, the total numbers of neurons in each experiment were determined by βIII-tubulin^+ immunocytochemistry after allowing 30 min for cells to adhere to glass culture slides. […] Neurite outgrowth from at least 180 neurons/condition from the 9 wells was measured, except in control (NBA) cultures, in which a total of 108 neurons were measured.

RGC axons = conditions: administration of CNTF after ONC; ref Vigneswara et al., 2013; cited from earlier work
[3] = system: retinal ganglion cells (RGCs); conditions: intravitreal delivery at 0, 7 and 14 days after ONC, equimolar concentrations, 21 days after ONC; ref Vigneswara et al., 2013; cited from earlier work
Procedure: Here we wished to confirm that, in vivo, PEDF-34 was more neuroprotective than full length PEDF. After intravitreal injection of vehicle + 0 nM PEDF-34, 295 ± 15 FG^+ RGC/mm^2 survived 21 days after ONC + PBS (0 nM PEDF-34) (Fig. 2A and B). Increasing the dose of ...

In the case of “^125I-labelled nerve growth factor: 125I-labelled nerve growth factor (26 kDa)”, the “time of peak accumulation in the retina and optic nerve” value [1] is listed as 6 h.

B1: BDNF: brain-derived neurotrophic factor (protein, UniProt P23560 19-247, looked up)
Neurotrophic factor BDNF …: APMKEANIRGQGGLAYPGVRTHGTLESVNGPKAGSRGLTSLADTFEHVIEELLDEDQKVRPNEENNKDADLYTSRVMLSSQVPLEPPLLFLLEEYKNYLDAANMSMRVRRHSDPARRGELSVCDSISEWVTAADKKTAVDMSGGTVTVLEKVPVSKGQLKQYFYETKCNPMGYTKEGCRGIDKRHWNSQCRTTQSYVRALTMDSKKRIGWRFIRIDTSCVCTLTIKRGR
For B1, the RGC protected (RGC; 7 days) is listed as 100% and the RGC protected (RGC; by 21 days) is listed as 60%.

B2: CNTF: ciliary neurotrophic factor (Peprotech), positive control at 440.5 pM (protein, UniProt P26441 1-200, looked up)
Ciliary neurotrophic factor: MAFTEHSPLTPHRRDLCSRSIWLARKIRSDLTALTESYVKHQGLNKNINLDSADGMPVASTDQWSELTEAERLQENLQAYRTFHVLLARLLEDQQVHFTPTEGDFHQAIHTLLLQVAAFAYQIEELMILLEYKIPRNEADGMPINVGDGGLFEKKLWGLKVLQELSQWTVRSIHDLRFISSHQTGIPARGSHYIANNKKM
In the case of B2, the “fold increase in βIII-tubulin+ neuron survival compared to untreated cultures” value [2] is listed as 1.9 fold and the “RGC axon regeneration after ONC” value (RGC axons) is listed as “limited RGC axon regeneration”.

B3: full length PEDF: 50 kDa neurotrophic factor, member of the serpin superfamily (protein, UniProt P36955 1-418, looked up)
chain: MQALVLLLCIGALLGHSSCQNPASPPEEGSPDPDSTGALVEEEDPFFKVPVNKLAAAVSNFGYDLYRVRSSTSPTTNVLLSPLSVATALSALSLGAEQRTESIIHRALYYDLISSPDIHGTYKELLDTVTAPQKNLKSASRIVFEKKLRIKSSFVAPLEKSYGTRPRVLTGNPRLDLQEINNWVQAQMKGKLARSTKEIPDEISILLLGVAHFKGQWVTKFDSRKTSLEDFYLDEERTVRVPMMSDPKAVLRYGLDSDLSCKIAQLPLTGSMSIIFFLPLKVTQNLTLIEESLTSEFIHDIDRELKTVQAVLTVPKLKLSYEGEVTKSLQEMKLQSLFDSPDFSKITGKPIKLTQVEHRAGFEWNEDGAGTTPSPGLQPAHLTFPLDYHLNQPFIFVLRDTDTGALLFIGKILDPRGP
modifications: full-length
notes: 50 kDa neurotrophic factor, member of the serpin superfamily
In the case of B3, the “survival of RGCs from death” value [3] is given as 55%.
